T1: GST-Alp7 (full-length Alp7/TACC fused to GST) (fission yeast, UniProt Q9URY2 1-474)
T1 sequence (looked up): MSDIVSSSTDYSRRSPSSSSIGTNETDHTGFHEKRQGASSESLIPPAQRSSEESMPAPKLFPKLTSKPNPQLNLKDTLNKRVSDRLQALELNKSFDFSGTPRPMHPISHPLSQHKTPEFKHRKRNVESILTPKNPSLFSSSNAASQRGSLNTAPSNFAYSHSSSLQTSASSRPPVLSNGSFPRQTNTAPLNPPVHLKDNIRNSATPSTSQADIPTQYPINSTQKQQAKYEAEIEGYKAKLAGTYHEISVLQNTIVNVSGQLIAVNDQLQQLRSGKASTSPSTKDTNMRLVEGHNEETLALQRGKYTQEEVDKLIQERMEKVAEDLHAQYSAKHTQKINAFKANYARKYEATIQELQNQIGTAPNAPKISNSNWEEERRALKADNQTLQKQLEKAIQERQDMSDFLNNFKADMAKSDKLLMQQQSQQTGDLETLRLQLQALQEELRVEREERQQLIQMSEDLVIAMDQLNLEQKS

T2: GST-Alp7C (C-terminal half of Alp7, TACC domain, residues 219-474) (fission yeast, UniProt Q9URY2 219-474)
T2 sequence (looked up): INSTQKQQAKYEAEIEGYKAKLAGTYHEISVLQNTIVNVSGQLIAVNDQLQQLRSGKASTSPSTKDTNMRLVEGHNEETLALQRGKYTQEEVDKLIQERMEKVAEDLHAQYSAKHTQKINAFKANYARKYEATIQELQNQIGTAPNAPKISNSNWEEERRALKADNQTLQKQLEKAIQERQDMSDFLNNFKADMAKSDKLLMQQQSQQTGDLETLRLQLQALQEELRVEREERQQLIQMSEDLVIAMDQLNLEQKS


What was measured:
[1] = target: T1, GST-Alp7 (full-length Alp7/TACC fused …); assay: peptide or protein array
[2] = target: T2, GST-Alp7C (C-terminal half of Alp7, …); assay: peptide or protein array

Row | binding result [1] | binding result [2] | Binder
1 | binds | binds | DSLEKKVQKINSLA (peptide, UniProt Q10198 411-424, looked up) [Ndc80 loop peptide (411-424) with F420 replaced by isoleucine]
2 | binds | binds | DSLEKKVQKLNSLA (peptide, UniProt Q10198 411-424, looked up) [Ndc80 loop peptide (411-424) with F420 replaced by leucine]

Reference: publication PMC3623634 (Molecular Biology of the Cell, 2013)
